This note sets out measurements from paper PMC10470887.

The test addresses SpGrx3 R47F mutant (Sphingomonas sp. PAMC 26621). As to the kind of experiment: SEC; Superdex 200 prep grade XK16 column; 50 mM Tris·HCl, 50 mM NaCl, pH 8.0; molecular weight against a protein standard mix.

Substance SpGrx3 R47F mutant (enzyme) had a stoichiometry N of 2.
